Test results from patent US20230357446A1.

Molecular target: CD22 on WSU-DLCL2 cells (WSU-DLCL2/CD22^WT; absent from the CRISPR-edited WSU-DLCL2/CD22^KO line) (human) (UniProt P20273)
Assay: cell-based or functional assay

CD4+ T cell activation (MFI of CD25); ratio CD22^KO:CD22^WT 0:100; 5 pM R1979 +0.46 nM R5837: 13400 MFI | CD4+ T cell activation (MFI of CD25); ratio CD22^KO:CD22^WT 0:100; 5 pM R1979 +2.8 nM R5837: 14800 MFI | CD4+ T cell activation (MFI of CD25); ratio CD22^KO:CD22^WT 0:100; 5 pM R1979 +16.7 nM R5837: 17700 MFI | CD4+ T cell activation (MFI of CD25); ratio CD22^KO:CD22^WT 20:80; 5 pM R1979 +0.46 nM R5837: 11200 MFI | CD4+ T cell activation (MFI of CD25); ratio CD22^KO:CD22^WT 20:80; 5 pM R1979 +2.8 nM R5837: 14400 MFI | CD4+ T cell activation (MFI of CD25); ratio CD22^KO:CD22^WT 20:80; 5 pM R1979 +16.7 nM R5837: 15300 MFI | CD4+ T cell activation (MFI of CD25); ratio CD22^KO:CD22^WT 40:60; 5 pM R1979 +0.46 nM R5837: 11800 MFI | CD4+ T cell activation (MFI of CD25); ratio CD22^KO:CD22^WT 40:60; 5 pM R1979 +2.8 nM R5837: 13200 MFI | CD4+ T cell activation (MFI of CD25); ratio CD22^KO:CD22^WT 40:60; 5 pM R1979 +16.7 nM R5837: 13600 MFI | CD4+ T cell activation (MFI of CD25); ratio CD22^KO:CD22^WT 60:40; 5 pM R1979 +0.46 nM R5837: 8520 MFI | CD4+ T cell activation (MFI of CD25); ratio CD22^KO:CD22^WT 60:40; 5 pM R1979 +2.8 nM R5837: 10900 MFI | CD4+ T cell activation (MFI of CD25); ratio CD22^KO:CD22^WT 60:40; 5 pM R1979 +16.7 nM R5837: 12000 MFI | CD4+ T cell activation (MFI of CD25); ratio CD22^KO:CD22^WT 80:20; 5 pM R1979 +0.46 nM R5837: 7520 MFI | CD4+ T cell activation (MFI of CD25); ratio CD22^KO:CD22^WT 80:20; 5 pM R1979 +2.8 nM R5837: 8280 MFI | CD4+ T cell activation (MFI of CD25); ratio CD22^KO:CD22^WT 80:20; 5 pM R1979 +16.7 nM R5837: 9850 MFI | CD4+ T cell activation (MFI of CD25); ratio CD22^KO:CD22^WT 100:0; 5 pM R1979 +0.46 nM R5837: 4280 MFI | CD4+ T cell activation (MFI of CD25); ratio CD22^KO:CD22^WT 100:0; 5 pM R1979 +2.8 nM R5837: 4060 MFI | CD4+ T cell activation (MFI of CD25); ratio CD22^KO:CD22^WT 100:0; 5 pM R1979 +16.7 nM R5837: 3150 MFI | CD8+ T cell activation (MFI of CD25); ratio CD22^KO:CD22^WT 0:100; 5 pM R1979 +0.46 nM R5837: 7920 MFI | CD8+ T cell activation (MFI of CD25); ratio CD22^KO:CD22^WT 0:100; 5 pM R1979 +2.8 nM R5837: 9030 MFI | CD8+ T cell activation (MFI of CD25); ratio CD22^KO:CD22^WT 0:100; 5 pM R1979 +16.7 nM R5837: 9880 MFI | CD8+ T cell activation (MFI of CD25); ratio CD22^KO:CD22^WT 20:80; 5 pM R1979 +0.46 nM R5837: 6310 MFI | CD8+ T cell activation (MFI of CD25); ratio CD22^KO:CD22^WT 20:80; 5 pM R1979 +2.8 nM R5837: 8410 MFI | CD8+ T cell activation (MFI of CD25); ratio CD22^KO:CD22^WT 20:80; 5 pM R1979 +16.7 nM R5837: 8660 MFI | CD8+ T cell activation (MFI of CD25); ratio CD22^KO:CD22^WT 40:60; 5 pM R1979 +0.46 nM R5837: 6140 MFI | CD8+ T cell activation (MFI of CD25); ratio CD22^KO:CD22^WT 40:60; 5 pM R1979 +2.8 nM R5837: 7920 MFI | CD8+ T cell activation (MFI of CD25); ratio CD22^KO:CD22^WT 40:60; 5 pM R1979 +16.7 nM R5837: 7880 MFI | CD8+ T cell activation (MFI of CD25); ratio CD22^KO:CD22^WT 60:40; 5 pM R1979 +0.46 nM R5837: 4800 MFI | CD8+ T cell activation (MFI of CD25); ratio CD22^KO:CD22^WT 60:40; 5 pM R1979 +2.8 nM R5837: 6620 MFI | CD8+ T cell activation (MFI of CD25); ratio CD22^KO:CD22^WT 60:40; 5 pM R1979 +16.7 nM R5837: 6670 MFI | CD8+ T cell activation (MFI of CD25); ratio CD22^KO:CD22^WT 80:20; 5 pM R1979 +0.46 nM R5837: 4250 MFI | CD8+ T cell activation (MFI of CD25); ratio CD22^KO:CD22^WT 80:20; 5 pM R1979 +2.8 nM R5837: 4890 MFI | CD8+ T cell activation (MFI of CD25); ratio CD22^KO:CD22^WT 80:20; 5 pM R1979 +16.7 nM R5837: 4970 MFI | CD8+ T cell activation (MFI of CD25); ratio CD22^KO:CD22^WT 100:0; 5 pM R1979 +0.46 nM R5837: 3000 MFI | CD8+ T cell activation (MFI of CD25); ratio CD22^KO:CD22^WT 100:0; 5 pM R1979 +2.8 nM R5837: 2510 MFI | CD8+ T cell activation (MFI of CD25); ratio CD22^KO:CD22^WT 100:0; 5 pM R1979 +16.7 nM R5837: 2160 MFI
Substance: REGN5837 (bispecific antibody)
% CD22^KO Survival; ratio CD22^KO:CD22^WT 20:80; 5 pM R1979 +0.46 nM R5837: 29.9% | % CD22^KO Survival; ratio CD22^KO:CD22^WT 20:80; 5 pM R1979 +2.8 nM R5837: 25.2% | % CD22^KO Survival; ratio CD22^KO:CD22^WT 20:80; 5 pM R1979 +16.7 nM R5837: 20.9% | % CD22^KO Survival; ratio CD22^KO:CD22^WT 40:60; 5 pM R1979 +0.46 nM R5837: 31.9% | % CD22^KO Survival; ratio CD22^KO:CD22^WT 40:60; 5 pM R1979 +2.8 nM R5837: 24.1% | % CD22^KO Survival; ratio CD22^KO:CD22^WT 40:60; 5 pM R1979 +16.7 nM R5837: 19.9% | % CD22^KO Survival; ratio CD22^KO:CD22^WT 60:40; 5 pM R1979 +0.46 nM R5837: 33.9% | % CD22^KO Survival; ratio CD22^KO:CD22^WT 60:40; 5 pM R1979 +2.8 nM R5837: 28.2% | % CD22^KO Survival; ratio CD22^KO:CD22^WT 60:40; 5 pM R1979 +16.7 nM R5837: 19.1% | % CD22^KO Survival; ratio CD22^KO:CD22^WT 80:20; 5 pM R1979 +0.46 nM R5837: 37.2% | % CD22^KO Survival; ratio CD22^KO:CD22^WT 80:20; 5 pM R1979 +2.8 nM R5837: 28.8% | % CD22^KO Survival; ratio CD22^KO:CD22^WT 80:20; 5 pM R1979 +16.7 nM R5837: 26.9% | % CD22^KO Survival; ratio CD22^KO:CD22^WT 100:0; 5 pM R1979 +0.46 nM R5837: 60.1% | % CD22^KO Survival; ratio CD22^KO:CD22^WT 100:0; 5 pM R1979 +2.8 nM R5837: 56% | % CD22^KO Survival; ratio CD22^KO:CD22^WT 100:0; 5 pM R1979 +16.7 nM R5837: 45.4% | % CD22^WT Survival; ratio CD22^KO:CD22^WT 0:100; 5 pM R1979 +0.46 nM R5837: 28.5% | % CD22^WT Survival; ratio CD22^KO:CD22^WT 0:100; 5 pM R1979 +2.8 nM R5837: 22.4% | % CD22^WT Survival; ratio CD22^KO:CD22^WT 0:100; 5 pM R1979 +16.7 nM R5837: 12.6% | % CD22^WT Survival; ratio CD22^KO:CD22^WT 20:80; 5 pM R1979 +0.46 nM R5837: 19.3% | % CD22^WT Survival; ratio CD22^KO:CD22^WT 20:80; 5 pM R1979 +2.8 nM R5837: 16.4% | % CD22^WT Survival; ratio CD22^KO:CD22^WT 20:80; 5 pM R1979 +16.7 nM R5837: 11.2% | % CD22^WT Survival; ratio CD22^KO:CD22^WT 40:60; 5 pM R1979 +0.46 nM R5837: 20.1% | % CD22^WT Survival; ratio CD22^KO:CD22^WT 40:60; 5 pM R1979 +2.8 nM R5837: 12.8% | % CD22^WT Survival; ratio CD22^KO:CD22^WT 40:60; 5 pM R1979 +16.7 nM R5837: 9.45% | % CD22^WT Survival; ratio CD22^KO:CD22^WT 60:40; 5 pM R1979 +0.46 nM R5837: 19.1% | % CD22^WT Survival; ratio CD22^KO:CD22^WT 60:40; 5 pM R1979 +2.8 nM R5837: 12.4% | % CD22^WT Survival; ratio CD22^KO:CD22^WT 60:40; 5 pM R1979 +16.7 nM R5837: 8.6% | % CD22^WT Survival; ratio CD22^KO:CD22^WT 80:20; 5 pM R1979 +0.46 nM R5837: 20.6% | % CD22^WT Survival; ratio CD22^KO:CD22^WT 80:20; 5 pM R1979 +2.8 nM R5837: 13.1% | % CD22^WT Survival; ratio CD22^KO:CD22^WT 80:20; 5 pM R1979 +16.7 nM R5837: 7.95%
